Source: US11666664B2, “Self assembling molecules for targeted drug delivery” (The General Hospital Corporation, priority 2015, dated 2023)

Test: Isoelectric point of expressed clathrin heavy chain preparation
Type: physicochemical
Details: recombinant human clathrin isoform 2 heavy chain with 6His tag from E. coli
Source text: The preparation yielded a protein with the following characteristics: […]

## PE1130119-1: Clathrin human isoform 2 heavy chain expressed in E. coli, soluble protein with 6His tag
  Isoelectric Point: 5.67
